In patent US20230203177A1 (Bristol-Myers Squibb, published 2023):
Residue numbers refer to the chain shown, from its start. In names and notes the source's numbering stands.

Molecular target: T1, soluble human CD40 extracellular domain (human, UniProt P25942 21-193)
T1 construct: Produced in house; also called hCD40; soluble hCD40 extracellular domain
Assay: SPR, Ab captured from supernatant on protein A, hCD40 ECD analyte
Description: The titer data (Table 21) were used to normalize the antibody concentration in each supernatant to 3 μg/ml, and these antibodies were captured out of the supernatants on a protein A CMS Series S sensor chip (GE Healthcare), and tested for binding to two concentrations (5 nM and 50 nM) of soluble hCD40 extracellular domain.
CD40 binding SPR of antibody supernatants: Surface plasmon resonance (SPR) studies were conducted on a BIAcore™ T200 instrument (GE Healthcare, Chicago Ill.). A Series S Protein A sensor chip (GE Healthcare, Chicago Ill.) was equilibrated with SPR running buffer of 10 mM NaPO₄, 130 mM NaCl, 0.05% tween 20, (PBS-T) pH 7.2 at 25° C. The 96 antibody supernatants were normalized to a concentration of 3 μg/ml by diluting with PBS-T using a PerkinElmer JANUS® G3 system (PerkinElmer, Akron, Ohio). After priming the system, the 3 μg/ml antibody samples were captured on the protein A surface for 30 s at 10 μl/min Binding of 50 nM and 500 nM human CD40 extracellular domain (produced in house) was evaluated using association time of 180 s at 30 μl/min, followed by a dissociation time of 180 s at 30 μl/min Regeneration between cycles was accomplished using two 15 s injections of 10 mM glycine pH 1.5. […] Data were analyzed using BIAcore™ T200 evaluation software by fitting to a 1:1 Langmuir model.

T1 sequence (P25942 21-193 limits assumed): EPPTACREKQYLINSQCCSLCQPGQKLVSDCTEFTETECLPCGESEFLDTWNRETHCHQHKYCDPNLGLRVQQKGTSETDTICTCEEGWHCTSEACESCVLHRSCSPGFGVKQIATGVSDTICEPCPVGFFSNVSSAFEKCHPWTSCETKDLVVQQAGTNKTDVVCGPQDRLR

B1: M26 (HC-R67E / LC-K45Q) (antibody, human IgG1, kappa, V domains shown)
VH: QVQLVQSGAEVKKPGSSVKVSCKASGYAFTSYWMHWVRQAPGQGLEWMGQINPTTGRSQYNEKFKTEVTITADKSTSTAYMELSSLRSEDTAVYYCARWGLQPFAYWGQGTLVTVSS
VL: DIQMTQSPSFLSASVGDRVTITCKASQDVSTAVAWYQQKPGKAPQLLIYSASYRYTGVPSRFSGSGSGTDFTLTISSLQPEDFATYYCQQHYSTPWTFGGGTKVEIKR
notes: IgG1-P238K; also called HC10/LC2
Kd: 3 nM

B2: M27 (HC-R57E / LC-K45Q) (antibody, human IgG1, kappa, V domains shown)
VH: B1 VH with R57E, E67R
VL: B1 VL
notes: IgG1-P238K; also called HC11/LC2
Kd: 10.4 nM

B3: M29 (HC-E46K,E62K / LC-K45Q) (antibody, human IgG1, kappa, V domains shown)
VH: B1 VH with E46K, E62K, E67R
VL: B1 VL
notes: IgG1-P238K; also called HC13/LC2
Kd: 8.8 nM

B4: M40 (HC-R38Q,K63Q,R67Q / LC-K45E) (antibody, human IgG1, kappa, V domains shown)
VH: B1 VH with R38Q, K63Q, E67Q
VL: B1 VL with Q45E
notes: IgG1-P238K; also called HC8/LC3
Kd: 3.1 nM

B5: M39 (HC-K23E / LC-K45E) (antibody, human IgG1, kappa)
heavy: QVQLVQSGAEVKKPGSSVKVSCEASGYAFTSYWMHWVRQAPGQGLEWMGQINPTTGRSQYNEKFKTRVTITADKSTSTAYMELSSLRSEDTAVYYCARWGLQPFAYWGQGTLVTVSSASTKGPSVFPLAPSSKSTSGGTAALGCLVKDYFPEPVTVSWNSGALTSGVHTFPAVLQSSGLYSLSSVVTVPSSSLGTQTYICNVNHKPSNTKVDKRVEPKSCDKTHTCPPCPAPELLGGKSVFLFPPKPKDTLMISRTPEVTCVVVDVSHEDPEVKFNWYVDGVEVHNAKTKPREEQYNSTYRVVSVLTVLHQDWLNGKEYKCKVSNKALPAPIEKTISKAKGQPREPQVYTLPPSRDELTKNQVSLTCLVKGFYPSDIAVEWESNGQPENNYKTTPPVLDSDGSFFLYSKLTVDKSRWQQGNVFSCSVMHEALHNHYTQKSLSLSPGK
light: DIQMTQSPSFLSASVGDRVTITCKASQDVSTAVAWYQQKPGKAPELLIYSASYRYTGVPSRFSGSGSGTDFTLTISSLQPEDFATYYCQQHYSTPWTFGGGTKVEIKRTVAAPSVFIFPPSDEQLKSGTASVVCLLNNFYPREAKVQWKVDNALQSGNSQESVTEQDSKDSTYSLSSTLTLSKADYEKHKVYACEVTHQGLSSPVTKSFNRGEC
notes: IgG1-P238K; also called HC7/LC3
Kd: 4.6 nM

B6: M28 (HC-R57E,K74Q / LC-K45Q) (antibody, human IgG1, kappa, V domains shown)
VH: B1 VH with R57E, E67R, K74Q
VL: B1 VL
notes: IgG1-P238K; also called HC12/LC2
Kd: 15.7 nM

B7: M31 (HC-R67Q / LC-K45Q) (antibody, human IgG1, kappa, V domains shown)
VH: B1 VH with E67Q
VL: B1 VL
notes: IgG1-P238K; also called HC15/LC2
Kd: 3.1 nM

B8: M35 (HC-K12Q,K13Q,K23Q / LC-K45E) (antibody, human IgG1, kappa, V domains shown)
VH: B1 VH with K12Q, K13Q, K23Q, E67R
VL: B1 VL with Q45E
notes: IgG1-P238K; also called HC3/LC3
Kd: 3.7 nM

B9: M30 (HC-K74T / LC-K45Q) (antibody, human IgG1, kappa, V domains shown)
VH: B1 VH with E67R, K74T
VL: B1 VL
notes: IgG1-P238K; also called HC14/LC2
Kd: 4 nM

B10: M42 (HC-R67E / LC-K45E) (antibody, human IgG1, kappa, V domains shown)
VH: B1 VH
VL: B1 VL with Q45E
notes: IgG1-P238K; also called HC10/LC3
Kd: 3 nM

B11: M43 (HC-R57E / LC-K45E) (antibody, human IgG1, kappa, V domains shown)
VH: B1 VH with R57E, E67R
VL: B1 VL with Q45E
notes: IgG1-P238K; also called HC11/LC3
Kd: 11.7 nM

B12: M41 (HC-K63Q,R67E / LC-K45E) (antibody, human IgG1, kappa, V domains shown)
VH: B1 VH with K63Q
VL: B1 VL with Q45E
notes: IgG1-P238K; also called HC9/LC3
Kd: 3.3 nM

B13: M34 (HC-K12Q,K13Q / LC-K45E) (antibody, human IgG1, kappa)
heavy: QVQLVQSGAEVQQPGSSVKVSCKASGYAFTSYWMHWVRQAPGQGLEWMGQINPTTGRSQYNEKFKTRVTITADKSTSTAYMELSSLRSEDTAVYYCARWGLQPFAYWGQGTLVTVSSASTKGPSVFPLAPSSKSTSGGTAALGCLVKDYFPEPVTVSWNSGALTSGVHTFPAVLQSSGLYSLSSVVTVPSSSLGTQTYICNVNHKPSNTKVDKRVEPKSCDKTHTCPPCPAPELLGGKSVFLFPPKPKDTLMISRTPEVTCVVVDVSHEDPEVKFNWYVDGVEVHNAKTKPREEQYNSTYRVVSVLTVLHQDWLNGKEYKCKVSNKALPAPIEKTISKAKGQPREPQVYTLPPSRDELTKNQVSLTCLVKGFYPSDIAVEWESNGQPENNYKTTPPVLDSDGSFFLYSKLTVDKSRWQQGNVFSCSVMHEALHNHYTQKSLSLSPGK
light: B5 light
notes: IgG1-P238K; also called HC2/LC3
Kd: 3.3 nM

B14: M32 (HC-K63Q / LC-K45Q) (antibody, human IgG1, kappa, V domains shown)
VH: B1 VH with K63Q, E67R
VL: B1 VL
notes: IgG1-P238K; also called HC16/LC2
Kd: 3.9 nM
